Experiment [1] addresses T1, HLA-B*08:01 (human).
T1 construct: Peptide-receptive MHC class I monomer in the UV-ligand exchange assay
As to the kind of experiment: UV peptide exchange, anti-b2m ELISA; exchange yield grade.

The target in experiment [2] is T1, HLA-B*08:01. Briefly: allele assigned to HLA ligand eluted from tissue (IP, LC-MS).
In a further experiment the target is T2, HLA-A*24:02 (human).
T2 construct: Peptide-receptive MHC class I monomer in the UV-ligand exchange assay
As to the kind of experiment: UV peptide exchange, anti-b2m ELISA; exchange yield grade. On the technique in general: An ELISA detects its analyte on a solid surface through an enzyme-linked reagent.

With YAFRNQTL, in the experiment with HLA-B*08:01 [1], the binding result is listed as “binds”. As for TILAKQNVL, the binding result with HLA-B*08:01 [2] is given as “binds”. As for TAMTTLMAF, the binding result in the experiment with HLA-B*08:01 [2] is “binds”. Take NQKGLISL: in the experiment with HLA-B*08:01 [1], the binding result is given as “binds”. Take IFDLSDPRF: the binding result in the experiment with HLA-A*24:02 is given as “binds”.

For the molecule ILRTVLPSL, the binding result with HLA-B*08:01 [2] is reported as “binds”.

Regarding VANDRLSFL, in the experiment with HLA-B*08:01 [1], the binding result is reported as “binds”. Take LHLNPGLSF: in the experiment with HLA-A*24:02, the binding result is “binds”.

The record behind these values is patent publication US20240358755A1 (IMMATICS BIOTECHNOLOGIES, published 2024).
